Results on 2 proteins are retold here after paper PMC4041915, “CBD binding domain fused γ-lactamase from Sulfolobus solfataricus is an efficient catalyst for (-) γ-lactam production” (BMC Biotechnology, 2014).

Substrate in the data set: O=C1NC2C=CC1C2
Kind of data set: purified protein. As to conditions: free enzyme, 50 mM phosphate pH 7.0, 70°C (standard assay), 4.6-32.2 mM substrate, racemate taken as the substrate (not stated for the kinetics), only (+) enantiomer hydrolysed.

B1: Cbd-Linker-Gla (cbd-linker-gla fusion enzyme; (+) γ-lactamase Gla) (Saccharolobus solfataricus P2) (protein)
chain: MGIKLPTLEDLREISKQFNLDLEDEELKSFLQLLKLQLESYERLDSLPDYTPRVKYQRTLGRPPMKEENPYGALVWITSIKGKEEGKLKGKRICIKDNVMIAGIPMLNGSKMLEGFVPHMDATVVSRILDEAGEIVAKTTCEDLCFSGGSHTSYPWPVLNPRNPEYMAGGSSSGSAVAVASGYCDMAVGGDQGGSIRIPSSWVGIYGLKPTHGLVPYTGAFSIEPTLDHLGPMANTVKDVALLLEVIAGRDELDSRQPDSLPPPPVKPYSKLIDGDVKDMKVGIVKEGFNWSNSEKDVDELVLDSAKKLEDYGIKVEDTSIPLHRMGLDIWTPIAIEGATATMILGSGVGWGRKGLFETQIADFFGNSLKSRARDLPNTVKGVLMLGYLMIKMYNNRYYAKARNLSIVLKEAYDSALRKYDALIMPTTPMKAMRYKSEPGFDEYFIMALGMINNTAPFDVTGHPAMNIPVGYSNGLPVGLMIIGRHFEEDKVLKLANVFERIKK
Turning to B1, the Km (as a rule, the concentration of substrate that gives half-maximal velocity) is 14.3 ± 1.6 mM.

B2: Gla-Linker-Cbd (gla-linker-cbd fusion enzyme; (+) γ-lactamase Gla) (Saccharolobus solfataricus P2) (protein)
chain: MGIKLPTLEDLREISKQFNLDLEDEELKSFLQLLKLQLESYERLDSLPDYTPRVKYQRTLGRPPMKEENPYGALVWITSIKGKEEGKLKGKRICIKDNVMIAGIPMLNGSKMLEGFVPHMDATVVSRILDEAGEIVAKTTCEDLCFSGGSHTSYPWPVLNPRNPEYMAGGSSSGSAVAVASGYCDMAVGGDQGGSIRIPSSWVGIYGLKPTHGLVPYTGAFSIEPTLDHLGPMANTVKDVALLLEVIAGRDELDSRQPDSLPPPPVKPYSKLIDGDVKDMKVGIVKEGFNWSNSEKDVDELVLDSAKKLEDYGIKVEDTSIPLHRMGLDIWTPIAIEGATATMILGSGVGWGRKGLFETQIADFFGNSLKSRARDLPNTVKGVLMLGYLMIKMYNNRYYAKARNLSIVLKEAYDSALRKYDALIMPTTPMKAMRYKSEPGFDEYFIMALGMINNTAPFDVTGHPAMNIPVGYSNGLPVGLMIIGRHFEEDKVLKLANVFERIKK
For B2, for the setting “preparation has a low-”, the Km stood at 5.7 ± 0.1 mM.
